The values below come from patent US20220133733A1 (Bicycle, published 2022).

Like-named read-outs stand apart in the source and are kept apart here. Starred links: 1 amine or outer side, 2 acyl side, 3 side chain; linkers in the order of their positions; H or OH if unused. Positions of bridges follow the written chain, without caps; N, C: chain ends. No end group written: not given here. TBMB = c1c(C[*:1])cc(C[*:3])cc1C[*:2]

Test [1] addresses T1, human CD38 (human, UniProt P28907 43-300, limits assumed).
T1 construct: also called hCD38
T1 sequence (looked up): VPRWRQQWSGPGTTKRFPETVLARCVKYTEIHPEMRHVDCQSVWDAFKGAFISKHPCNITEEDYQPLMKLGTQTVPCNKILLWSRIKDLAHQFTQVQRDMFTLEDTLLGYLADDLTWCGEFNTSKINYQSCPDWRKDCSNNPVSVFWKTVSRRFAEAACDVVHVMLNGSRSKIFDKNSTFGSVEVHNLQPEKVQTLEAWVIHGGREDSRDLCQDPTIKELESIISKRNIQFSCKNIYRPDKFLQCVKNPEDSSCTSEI
Nature of the test: fluorescence polarisation competition, tracer …-Sar6-K(Fl).

Test [2] concerns the target T1, human CD38. The description is as above. This is another data set of the same source.

B1: BT66BDC-1 (peptide)
peptide: XXXXXXXXXXXACVPCADFPIWYC
modifications: DM1 toxin conjugated to the peptide through a linker shown only in the drawing of formula (I); N-terminal beta-alanine followed by ten sarcosines (Sar10); Ci, Cii and Ciii bound to TBMB scaffold
notes: The attachment site and linker stand only in drawings; also called BDC of formula (I)
The molecule B1 yielded a Ki with human CD38 [1] of 144 nM.

Take ACFTLDGECFLLGENCA (linker 2-9-16 via TBMB (inferred)) [66-08-52-N001]: affinity in the test with human CD38 [2] was put at a Ki of 562 nM.
